# The DeepSol protein solubility set
# Assay: soluble on expression in E. coli; label from the status in PepcDB or PDB records
row,Sequence,soluble on expression in E. coli
1,MQQLLAPVHAFLRCETPQTWIDVARASASLDELLIDHCNCELKAAQTAMFLLRRYALNAESGQSLLAWAKPYEEFVYHKDRDIEQFLARDVKKNELVAVLQPNQHFSFAQDLIPPLIRLIKEEFHHFEQVLELMHARQIPYRNIRAGRYAKGMMSHVTTHEKNILRDKLIVGAYIEARSCERFAKLAPYLDAELSKFYVSLLRSEARHFEDYLKLAQLVSSEDISERVAYFGEREAELIMAPDDEFHFHSGQPQAIKYSYA,not soluble
2,MQQNIRIQKNQYDTATHPTASSTTWKYVTYDETSETFGMSEQVADPCNHCPKPRNYNSECKDEDVEKHFEKVMPCVHTYTIIYGNVHHLPNHPIIRNLRHNHY,soluble
3,MQQQGWRTYLYDAEQPYTPVASVTGKGESRQVWYYHTDVTGTPQEVTAADGTLVWAGYIKGFGENAADISNSGAYFHQPLRLPGQYFDDETGLHYNLFRYYAPECGRFVSQDPIGLAGGLNLYQYAPNPIRWIDPLGLAILEHQSNFDAARRTGFENAGMTNPEDVTFSKVDPKTGTVVEFKGPNGAKVAYDAPHADMDVTAGHDKPHVGWQSAGKRGSGGANRGNITYDGPQHPHRSDSKGDDKCLEHHHHHH,not soluble
4,MQRLEESTSCRGVGDMRKAIIVGVGMTPVGEHWRSSLRDLAVEAILNAMDDAGIDKVDSLYVGNMASGSFVEQENLGALIADWAGLGNIPAVKIEAACASGGAAVQEGAKAVLSGLEDVVLVVGVEKMTDAWPSDATRYLGYAADAEWELFHGASFVALNALIMRLYMNTYGYKEEDLALFAVNAHANGAKNPYAMFKKPITVETVMKSPYIADPLKLFDASPVCDGAAAVIITTPEKAKELGIPKDKWIEIAGMGRAIDTINLANREDFLTLKAATIAAERAYKMAGVKPEDVDFFEVHDAFTVMAALSLEALGVAKKGEGAKLAIEGQIAIDGDYPIQTMGGLKARGHPVGATGVYQVVEAVLQLRGEAPDGIQVPDAEVGLTQNIGGTGSNITVTVLRRV,not soluble
5,MQSINLPVDHSKIDANFEGYKVSMNNVHFSSKSLDQNLCLRAPSNEMITLQHMKVFSNDNQLFCDYSKCTDSQQFLYRILDTGHIQAMVYEKKTQIWNTSIVGSIDVGTNASSAFPTNLLFTENNLVVACNGISEITVFLAVSDSNWVKMLEHKVSEQGLSLIEARILNGKLNILAYHVESDDSKKTRSRIHSIRINLDDIDYADSLTVEKSMDLIQNGHFETCTFTNNGEIIFLSSEKPHVEGQQEDMEEKATSGQSKPKPTIEEQSRYLVDIKQLITPFDGDASNYLLFKSTFDYLVHNNHFLEINMKNVALVNALTGDAKQFIVTSNIMEMGYKLTLENLEWTFNRPGFQMRLHSEMLERIKFDENDYSQMETALIKYCSIAREIQLWCGQLFTLFGFHRRITGCDRAQMEHSWEQTGNIIQVAFKLKSEISKEDVKIDTTKTGIRLIVKDLTLLSGKLSGEIDENDVEICADQKTNSLKLKLKSIDDKKWEKLISVEYDTLKSLEDSEIKRTMKGEQVIESDEPMEECDETEGSMAFYWVDQESGKVLKQCDVSGSQVLFTSRQSSTSPALICLRHDVDGLLWSFDESAPSHVATLQAFGYVQASKTSRLWSGCSPNKSLACIVEGNNRVLLYSQKVEVSGSLSNRKTSQTVSHVSKQHLLRVECSDPIRGVQLTDTHLFAATKSHIHVAELNL,not soluble
6,MQSLDIKPTVGLIACCECGVAIEPNPANMCSGCLRSRVDITEGITRQCTIYMCKFCDRYFVPPSAWMRAELESKELLSICLKKLKPMLTKVRLTDACFVWTEAHSKRIKVKITIQKEVFTNTILQQAVVVEFTVHSQLCDDCRRAEAKDFWRACVQVRQRAEFKKTLFYLEQLLLKHSAHKECTGVKPVPTGIDFYFAKQQEARKFVDFLMTVLPCKYHYAQELVSHDTKNNTYDYKHTFCVEIVPICRDNIVCLPKKQAQQYGNMSQIVLCLRVSNVITLIDPNNLQLVDVQATNFWREPFDSLCGPKQLTEFYVLDVEPVNNFERKAGHGYVSKKHELADVWLVRSDQVGMSDAQSLSARTHIGHLLSPGDLVMAFDMKNCNVNNATFDAMNIDNVPDAIIVRKVFDRTRRTAKRQWKLKRLVVDGNIVGNETASVADEFQGFMEDIEEDALMREKINIYKDAEKGPNVDGDDAEDHPDAPTLAEMLDDLKFDDEEMKEAESAEDDEAMQE,not soluble
7,MQSWSRVYCSLAKRGHFNRISHGLQGLSAVPLRTYADQPIDADVTVIGSGPGGYVAAIKAAQLGFKTVCIEKNETLGGTCLNVGCIPSKALLNNSHYYHMAHGTDFASRGIEMSEVRLNLDKMMEQKSTAVKALTGGIAHLFKQNKVVHVNGYGKITGKNQVTATKADGGTQVIDTKNILIATGSEVTPFPGITIDEDTIVSSTGALSLKKVPEKMVVIGAGVIGVELGSVWQRLGADVTAVEFLGHVGGVGIDMEISKNFQRILQKQGFKFKLNTKVTGATKKSDGKIDVSIEAASGGKAEVITCDVLLVCIGRRPFTKNLGLEELGIELDPRGRIPVNTRFQTKIPNIYAIGDVVAGPMLAHKAEDEGIICVEGMAGGAVHIDYNCVPSVIYTHPEVAWVGKSEEQLKEEGIEYKVGKFPFAANSRAKTNADTDGMVKILGQKSTDRVLGAHILGPGAGEMVNEAALALEYGASCEDIARVCHAHPTLSEAFREANLAASFGKSINF,not soluble
8,MQVKSIKMRWESGGVNYCYLLSDSKNKKSWLIDPAEPPEVLPELTEDEKISVEAIVNTHHHYDHADGNADILKYLKEKNPTSKVEVIGGSKDCPKVTIIPENLKKLHLGDLEITCIRTPCHTRDSICYYVKDPTTDERCIFTGDTLFTAGCGRFFEGTGEEMDIALNNSILETVGRQNWSKTRVYPGHEYTSDNVKFVRKIYPQVGENKALDELEQFCSKHEVTAGRFTLKDEVEFNPFMRLEDPKVQKAAGDTNNSWDRAQIMDKLRAMKNRM,soluble
9,MQYINIANRGVKSLSPYQAGKPIEELERELGISNIVKLASNENPFGFPESAKKAIFEQLDKLTRYPDANGFELKQTIAKKFGVQPNQITLGNGSNDLLELFAHTFATEGDEIMYSQYAFIVYPLVTKAINAIVKEIPAKNWGHDLQGFLTALSDKTKLIYIANPNNPTGNFLTSQEIEDFLAEVPENVIVVLDEAYTEFTRSEERVDSFSLLKKYSNLIISRSLSKAYGLAGLRIGYAVSNPEIADLLNRVRQPFNCNSLALTAAVAVMNDDKFVEKVAENNRIEMRRYEDFCQKNQLDYIPSKGNFITIDFKQPAAPIYDALLREGVIVRPIAGYGMPNHLRISIGLPEENDKFFTALSKVLKFA,not soluble
10,MRALIIVDVQNDFCEGGSLAVTGGAALARAISDYLAEAADYHHVVATKDFHIDPGDHFSGTPDYSSSWPPHCVSGTPGADFHPSLDTSAIEAVFYKGAYTGAYSGFEGVDENGTPLLNWLRQRGVDEVDVVGIATDHCVRQTAEDAVRNGLATRVLVDLTAGVSADTTVAALEEMRTASVELVCSS,soluble
11,MRALPIADDVAGVIFALNGGDLGEDTGCVYYFAPDTLNWESLEVGYSEFLQWALSGDLDTFYENVRWQQWREDVIKLSATEAFTFYPFLWVQSEEARTRKVISLTELWEMQYQMKETFTQLEHHHHHH,not soluble
12,MRAPGVRAADGAGRVVLYLHGGAFVMCGPNSHSRIVNALSGFAESPVLIVDYRLIPKHSLGMALDDCHDAYQWLRARGYRPEQIVLAGDSAGGYLALALAQRLQCDDEKPAAIVAISPLLQLAKGPKQDHPNIGTDAMFPARAFDALAAWVRAAAAKNMVDGRPEDLYEPLDHIESSLPPTLIHVSGSEVLLHDAQLGAGKLAAAGVCAEVRVWPGQAHLFQLATPLVPEATRSLRQIGQFIRDATADSSLSPVHRSRYVAGSPRAASRGAFGQSPI,soluble
13,MRAVIPYKKAGAKSRLSPVLSLQEREEFVELMLNQVISSLKGAGIEQVDILSPSVYGLEEMTEARVLLDEKDLNEALNRYLKEAEEPVLIVMADLPLLSPEHIKEISSTEKDVCIVPGKGGGTNALFIKNPSKYRVKYYGSSFLTHCSIATDSGQDFEIYDSFMAGTDIDEPEDLVELLIHGKGAAKDYIESKFRLEVKKG,not soluble
14,MRCPYCQYEDTQVKDSRPSEEGTVIRRRRICSVCGGRFTTFERVQLRELLVLKKSGRYEPFDRDKLMRSVEIAVRKRGIDPDYIERVISGIVRQLESLGEPEISSEKIGLLVMKALKSIDDIAYIRFASVYRDFRNASDFHDVIEELSKGITDTESCFDE,not soluble
15,MRDFLNTKNQTNQSVYLAILRIKMKTPYQIQFEAFNADDFYTEAHAKLYAQFADNLINEGNYSIVYKGVAHACYTPITIDKAPHLKCFVLAPLAVLPEHQGKGYATQLMEQAESELGADVIFVLGDPKHYARRFNAQHNVALPIGSDESPDFWFARELTTDALDGIGQSSSTIKGVFADPIMWSHPDEQI,not soluble
16,MRDIQMVLERWGAWAANNHEDVTWSSIAAGFKGLITSKVKSRPQCCDDDAMIICGCMARLKKNNSDLHDLLVDYYVVGMTFMSLAGKHCCSDGYIGKRLQKAEGIIEGMLMALDIRLEMDIVVNNSNLEHHHHHH,not soluble
17,MRDVDLTAAPAKKAKLDTGERIAVSGRVASVKLTNFMCHANLQIDFKTAQNNCFYIGGPNGSGKSALFAAINLGLGGRGSDNDRGNTVKSYIKDGTTQSKITITLTNAGLNAHPDFDDLISIERTINQASSTYIMKSVKVTSSDNHVERIVSRKKADVDRIVSRFSIHLSNPAFWMSQDRSRSFLANFKPANVYKLYLESTNLENIRLSYIRFADALDECFALIQLKAGEILNEQKKLKRMQEQRDLQAKLDQDRALVASFCWKLLFCKVRDYNDQIELTLKKQEAQKTLQDETKKEYAKNRAARTEVEKKIQEFRDEVEVQDAEIAEAREDLDAKKRKVLEFEEKIRECEQSIRKKTSEKKYMERTIVNAKNEVRILLEKQGNQDLTKRLTKVENDYKDISQQRENMELGGESAKLREKLDTVITDYKRKEEEKYTIQRDINQLRRKIEQDMETMRRSRATKKDAINKFGSHMAEILMEINRSKSRFQTVPKGPLGKYITLIDPKWAFTVEECIGNLANNFLCSSHLDAEILRNIFQSLRIPAQDRPTIIVAKCNGRAYTNLHEPSSDFKSIYRVLKFSDPDVHNVIIDKSNCEQFILIEDKTEAMELMGSNYPPQNAVKAYTLDGSQAYANGPNSQYRFYSGRGGHARGTFGNDQGDVDEGALARLIEDTKSEAMRLETQDLRKQDHELKVIYNERDQTKAAIDEFDRKLSNLRSQELQKERQAKDLRAELAQTANEDQVENLNESIEEMQKKIPLIEDEVKDILKNVADITADMAPVIQERKEAEHTLAEIQKETRDFASKSQKLQNELSKYDDAGEILKIRLDKVKADEGVFFHTEAKLKSERDDAMEMVENDKKNHPMPPGETDPPDLSSFPSTTEAQRKIEEMQKAVDRATVGCDTTITLECVKDFKDKLKRLKYLCRMIEDVLIELKNLHAARVKAYPSLKKFTELKVCNKFQELLAVRGHFIGGLEFDHEKETLNVNVQSSKEKDAMAGRRPEVLEVEEVDEHSYDDDSDDSTGPRRKKSKKSGQKKKRVRDLKGLSGGERSFVTAALVMSLWEVMEQPFRMMDEFDVFMDMMNRKLVMDLLVELATKKFPHNQFIFFTPQGIKELNMVDGLQVFEMNRVRD,not soluble
18,MREEVKTVIKVKTVGDVPAIVSARKSITEGKVKDAIISGYRDVKNDYMRYFGIQQAPDEGERLFIVNTLKGLGIDLPEESIVDGKFIIDRISGMDLASTDPKVACFVKIAEFYLKYYEKAKYSDSVIEDDGEIIERLTGIYNYMDITKLYFKGDDAGVGT,not soluble
19,MRESPYRILEEALRPHLGARAQVVLEEGLKRLGKRPEELSEKDAETLLKGLIFRELQARLPAAQARRAVEEALARLAPAPEGGLEALERGLARFGLYVDWPEVGRLRALVNRLRREPDPRLLQEGLALLDHLEEKLEEALLRQAQDLAHLEEALERVRPLGGPKVRRLESLIQIVREAHREGTLAQGEVERARGPGPEAPQVPGLQSRPARHPPRDGL,soluble
